B1: CPEB3 Ribozyme (parent)
chain: UAACAGGGGGCCACAGCAGAAGCGUUCACGUCGCAGCCCCUGUCAGAUUCUGGUGAAUCUGCGAAUUCUGCUGUAUAUCUC

Variants of: B1
Assay: self-cleavage, relative activity (ratio to wild type); higher = more cleavage; in vitro, sequencing
Method in brief: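 Relative activity compares each variant's cleaved/total read fraction with that of the unmutated ribozyme. To get these fractions, barcoded CPEB3 ribozyme libraries from rounds of error-prone PCR were transcribed with T7 RNA polymerase for 5 hours at 37°C and then given 15 min of DNase I treatment before EDTA was added. The RNAs were reverse transcribed with template switching and sequenced on Illumina, and DNA sequencing linked barcodes to variants. A minimum of 5 reads applied, and three batches were averaged.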

Variant | self-cleavage
A2U A18G | 0.89
A2U A65G | 0.26
A2U A65U | 0.29
A2U U49A | 0.72
A3C C37U | 0.6
A2U G16A | 0.18
A2U C4U | 1.15
A2U C40U | 0.89
A2U C40G | 0.31
A3G C32U | 0.45
A3G C32A | 0.14
A3G C32G | 0.17
A3G C12A | 1.16
A3G C12U | 1.22
A2U A56U | 0.4
A2U A56G | 0.88
A2U A56C | 0.73
A2G C29U | 0.24
A2G C29A | 0.13
A3C U25A | 0.4
A3C U25C | 0.44

Variant | self-cleavage
A3C U25G | 0.55
A2U U74C | 0.91
A2U U41C | 1.07
A2U U41A | 0.25
A3G C14U | 1.12
A3G C14A | 1.13
A2U U67A | 0.49
A2U U67C | 0.39
A2G G9U | 0.42
A2G G9A | 0.28
A2G U74A | 1.07
A2G U74C | 1.12
A2G U74G | 1.01
A2U U31A | 0.48
A2U U31C | 0.81
A2U C17U | 0.31
A2G U60C | 0.25
A2G U60A | 0.22
A2G U69C | 0.32
A2G U69G | 0.46
A2G U69A | 0.33

Variant | self-cleavage
A2U A3U | 1.04
A2U A3G | 0.99
A2G G8U | 0.11
A2G G8A | 0.3
A3C G61C | 0.32
A2U U54C | 1.13
A2U U54A | 1.15
A2U U54G | 0.77
A2U C34U | 0.24
A2U A15G | 0.8
A2U A15U | 0.41
A2U A35U | 0.49
A2U A35C | 0.85
A2U A35G | 1.19
A2G G36C | 0.24
A2G G36A | 0.16
A2G G70A | 0.16
A3G A45U | 0.4
A3G A45G | 0.78
A2G G52C | 0.83
A2G G52A | 0.65

Variant | self-cleavage
A2G G52U | 0.77
A3C A77U | 1.03
A2U U66A | 0.52
A2U U66C | 0.38
A2G G22U | 0.07
A2G G22A | 0.22
A2U G70C | 0.31
A3G C4G | 1.15
A3G C4U | 1.11
A3G C4A | 1.17
A3C C17U | 0.54
A2G C39A | 0.09
A3G A56U | 0.64
A3G A56G | 0.77
A3G A56C | 0.8
A2U G36A | 0.29
A3C U72A | 1.09
A2U A13U | 1.08
A2U A13G | 0.84
A3G C23A | 0.22
A3G C23U | 0.38
